The source of these data is patent publication US7053041B1, “Methods and compositions useful for inhibition of αvβ5mediated angiogenesis” (The Scripps Research Institute, priority 1996, dated 2006).

[ ]: non-standard residue; d: D form.

One assay concerns the target integrin αIIbβ3 (Homo sapiens, UniProt P05106+P08514). As to conditions: cited from earlier work.
The subject of assay [1] is TNF-α mediated angiogenesis. The assay can be described thus: chick CAM assay, TNF-α-induced angiogenesis. The assay is classed as in vivo. As to conditions: TNF-α 1.0 μg/ml; antibodies 75 μg per embryo, calphostin C 100 nM. As for the experimental part:
(§1) The above growth factors (cytokines), including bFGF and VEGF, were separately applied at a concentration of 1.0 μg/ml to the 10 day old CAM model as previously described. PMA was used at a concentration of 20 ng/ml.
(§2) After 24 hours after growth factor treatment, the antibodies, LM609 and P1F6, or the protein kinase C (PKC) inhibitor, calphostin C, were separately provided to the CAM model, either by a single intravascular dose as described above or by topical administration as described below in the next example. For intravascular injections over the next 3 day consecutive period, the antibodies were used at a concentration of 75 μg per embryo and the calphostin C was at a dosage of 100 nM.
(§3) On day 13, filter discs and associated CAM tissue were dissected and analyzed for angiogenesis with a stereo microscope. Angiogenesis was scored in a double blind manner by analyzing the number and extent of branching of the blood vessels within the area of the discs. The scores ranged from low (1) to high (4). The angiogenesis index was determined by subtracting a background score of 1 from all data. Experiments were repeated 2–4 times with 5–6 embryos per condition.

Assay [2] concerns angiogenesis induced by TGF-α. The assay can be described thus: chick CAM assay, TGF-α-induced angiogenesis. Format: in vivo. As to conditions: TGF-α 1.0 μg/ml; antibodies 75 μg per embryo, calphostin C 100 nM. As for the experimental part: as §1, §2, §3
Assay [3] concerns angiogenesis induced by PMA. The assay can be described thus: chick CAM assay, PMA-induced angiogenesis. Format: in vivo. As to conditions: PMA 20 ng/ml; antibodies 75 μg per embryo, calphostin C 100 nM. As for the experimental part: as §1, §2, §3
Another assay relates to CS-1 melanoma tumors. The assay can be described thus: CS-1 melanoma tumor growth on chick embryo CAM, intravenous mAbs. The assay is classed as in vivo. As to conditions: 100 to 300 μg mAb once intravenously; 7 days. As for the experimental part:
Angiogenesis is induced in the CAM assay system by direct apposition of a tumor fragment on the CAM. Preparation of the chick embryo CAM is identical to the procedure described above. Instead of a filter paper disk, a 50 milligram (mg) to 55 mg in weight fragment of one αvβ5-negative tumor resulting from growth of cell line suspensions described below, is placed on the CAM in an area originally devoid of blood vessels.
In one embodiment, hamster melanoma cells, CS-1, obtained from Dr. Caroline Damsky from University of California at San Francisco, were used in the CAM assay as described above for formation of melanoma tumors. Following the transfer of approximately a 50 mg CS-1 tumor fragment on a new 10 day chick embryo CAM, separate preparations received an intravenous injections of either 100 μg or 300 μg of P1F6 antibody, LM609 antibody or control CSAT (anti-β1) antibody. An additional control included a preparation that received no treatment. The results are discussed below in Example 6D.
Tumor-induced blood vessels prepared above were also treated with mAbs applied by intravenous injection. […] After this time period, the tumors were resected and analyzed by their weight to determine the effect of antibody exposure on tumor growth or suppression.

“cyclo(Arg-Ala-Asp-D-Phe-Val) (cyclo(RAD[dF]V); SMILES CC(C)[C@@H]1NC(=O)[C@@H](Cc2ccccc2)NC(=O)[C@H](CC(=O)O)NC(=O)[C@H](C)NC(=O)[C@H](CCCNC(=N)N)NC1=O) [peptide 69601, reference compound]”: the “inhibition of binding of fibrinogen to integrin αIIbβ3” value with integrin αIIbβ3 is “not inhibit binding”.

B1: LM609: mouse monoclonal antibody, anti-αvβ3 (antibody, V domains shown)
VH: EVQLEESGGGLVKPGGSLKLSCAASGFAFSSYDMSWVRQIPEKRLEWVAKVSSGGGSTYYLDTVQGRFTISRDNAKNTLYLQMSSLNSEDTAMYYCARHNYGSFAYWGQGTLVTVSA
VL: ELVMTQTPATLSVTPGDSVSLSCRASQSISNHLHWYQQKSHESPRLLIKYASQSISGIPSRFSGSGSGTDFTLSINSVETEDFGMYFCQQSNSWPHTFGGGTKLEIKRA
On to B1, for which, in assay [1], the “effect on CAM angiogenesis in response to TNF-α (angiogenesis index)” value is reported as “blocked angiogenesis”. The “effect on CAM angiogenesis induced by TGF-α (angiogenesis index)” value in assay [2] is reported as “failed to do so”. Also, the “effect on CAM angiogenesis induced by PMA (angiogenesis index)” value in assay [3] is recorded as “failed to do so”. In addition, the “inhibition of CS-1 tumor growth” value in the assay with CS-1 melanoma tumors was “also inhibited tumor growth, however, less effective than that with P1F6”.
